Experiments:
Assay in all cases: two-hybrid; LexA-Cdc1 bait (pBTM116 or pBTM116BN) with Gal4-Pol3 prey and co-expressed c-myc-tagged Cdc27 (pAA-Cdc27) in S. cerevisiae CTY10-5d; ONPG liquid culture beta-galactosidase assay, mean of triplicates, as percent of wild-type Cdc1
Settings in all cases: partners not purified
Cdc1-E5 = biological target: T1, Cdc1-E5 (Schizosaccharomyces pombe, UniProt P87324 1-462, Val-MetGlyTyrProVal-Met)
T1 construct: Cdc1, S. pombe, with a pentapeptide inserted after residue 86; source: yeast two-hybrid fusion, in S. cerevisiae CTY10-5d
T1 sequence (looked up): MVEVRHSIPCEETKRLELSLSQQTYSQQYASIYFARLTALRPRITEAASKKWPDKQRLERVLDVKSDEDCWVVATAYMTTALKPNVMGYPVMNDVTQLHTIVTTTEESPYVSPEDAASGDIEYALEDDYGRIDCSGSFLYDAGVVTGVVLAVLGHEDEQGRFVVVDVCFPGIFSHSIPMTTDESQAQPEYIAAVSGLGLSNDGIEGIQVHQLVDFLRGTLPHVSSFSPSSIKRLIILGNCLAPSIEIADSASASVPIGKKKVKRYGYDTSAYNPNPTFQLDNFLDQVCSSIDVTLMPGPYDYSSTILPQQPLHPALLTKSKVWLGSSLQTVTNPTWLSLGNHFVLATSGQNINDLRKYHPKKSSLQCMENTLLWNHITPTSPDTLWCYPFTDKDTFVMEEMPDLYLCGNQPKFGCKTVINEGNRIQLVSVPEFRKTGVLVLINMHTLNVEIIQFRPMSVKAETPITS

Cdc1-J6 = biological target: T2, Cdc1-J6 (Schizosaccharomyces pombe, UniProt P87324 1-462, Tyr-GlyValProHisTyr-Gly)
T2 construct: Cdc1, S. pombe, with a pentapeptide inserted after residue 124; source: yeast two-hybrid fusion, in S. cerevisiae CTY10-5d
T2 sequence (looked up): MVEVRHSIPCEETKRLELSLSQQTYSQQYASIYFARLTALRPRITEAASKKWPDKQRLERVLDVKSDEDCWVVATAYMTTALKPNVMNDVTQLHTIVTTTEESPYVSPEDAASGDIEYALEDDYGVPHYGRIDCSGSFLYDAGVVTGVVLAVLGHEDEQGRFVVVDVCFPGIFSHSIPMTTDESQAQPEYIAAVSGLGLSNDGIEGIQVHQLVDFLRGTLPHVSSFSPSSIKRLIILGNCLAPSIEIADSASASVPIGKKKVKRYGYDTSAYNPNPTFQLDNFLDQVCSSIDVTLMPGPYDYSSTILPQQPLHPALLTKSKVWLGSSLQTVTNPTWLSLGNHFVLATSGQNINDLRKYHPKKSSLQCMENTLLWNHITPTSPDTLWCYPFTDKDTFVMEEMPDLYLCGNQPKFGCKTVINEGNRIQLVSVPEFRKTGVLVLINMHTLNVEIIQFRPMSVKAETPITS

Cdc1-A3 = biological target: T3, Cdc1-A3 (Schizosaccharomyces pombe, UniProt P87324 1-462, Asp296Ala)
T3 construct: Cdc1, S. pombe, point mutant; source: yeast two-hybrid fusion, in S. cerevisiae CTY10-5d
T3 sequence (looked up): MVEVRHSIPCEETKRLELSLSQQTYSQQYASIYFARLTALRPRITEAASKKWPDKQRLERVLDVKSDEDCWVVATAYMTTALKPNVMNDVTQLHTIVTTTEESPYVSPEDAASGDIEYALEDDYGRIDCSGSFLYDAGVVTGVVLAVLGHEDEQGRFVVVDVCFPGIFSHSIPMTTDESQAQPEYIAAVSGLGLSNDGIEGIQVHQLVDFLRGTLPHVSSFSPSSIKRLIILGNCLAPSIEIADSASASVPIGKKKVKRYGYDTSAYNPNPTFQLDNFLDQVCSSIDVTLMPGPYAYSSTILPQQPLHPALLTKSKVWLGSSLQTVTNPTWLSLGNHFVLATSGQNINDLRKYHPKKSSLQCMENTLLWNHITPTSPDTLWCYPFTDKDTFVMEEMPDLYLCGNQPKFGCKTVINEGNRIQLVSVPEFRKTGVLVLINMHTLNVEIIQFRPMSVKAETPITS

Cdc1-E4 = biological target: T4, Cdc1-E4 (Schizosaccharomyces pombe, UniProt P87324 1-462, Cys-GlyValProProCys-Glu)
T4 construct: Cdc1, S. pombe, with a pentapeptide inserted after residue 10; source: yeast two-hybrid fusion, in S. cerevisiae CTY10-5d
T4 sequence (looked up): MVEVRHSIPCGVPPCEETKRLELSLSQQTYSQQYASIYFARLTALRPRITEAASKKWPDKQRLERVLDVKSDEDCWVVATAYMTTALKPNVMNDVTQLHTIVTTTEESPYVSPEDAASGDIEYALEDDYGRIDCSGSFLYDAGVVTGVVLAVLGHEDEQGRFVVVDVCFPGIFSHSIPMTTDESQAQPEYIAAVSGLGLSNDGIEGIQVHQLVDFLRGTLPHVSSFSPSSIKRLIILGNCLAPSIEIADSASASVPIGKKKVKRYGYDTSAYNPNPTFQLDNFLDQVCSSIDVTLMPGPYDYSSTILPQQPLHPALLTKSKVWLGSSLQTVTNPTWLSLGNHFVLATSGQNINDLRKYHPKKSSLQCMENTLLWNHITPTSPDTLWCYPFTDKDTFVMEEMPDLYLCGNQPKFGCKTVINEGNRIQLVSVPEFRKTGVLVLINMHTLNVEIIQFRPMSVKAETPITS

two-hybrid beta-galactosidase activity, % of wild-type Cdc1 (Cdc1-E5): 48% | two-hybrid beta-galactosidase activity, % of wild-type Cdc1 (Cdc1-J6): < 1% | two-hybrid beta-galactosidase activity, % of wild-type Cdc1 (Cdc1-A3): < 1% | two-hybrid beta-galactosidase activity, % of wild-type Cdc1 (Cdc1-E4): 16%
B1: Pol3 (fission yeast DNA polymerase delta catalytic subunit) (natural protein, Schizosaccharomyces pombe, UniProt P30316 1-1086, looked up)
chain: MTDRSSNEGVVLNKENYPFPRRNGSIHGEITDVKRRRLSERNGYGDKKGSSSKEKTSSFEDELAEYASQLDQDEIKSSKDQQWQRPALPAINPEKDDIYFQQIDSEEFTEGSVPSIRLFGVTDNGNSILVHVVGFLPYFYVKAPVGFRPEMLERFTQDLDATCNGGVIDHCIIEMKENLYGFQGNEKSPFIKIFTTNPRILSRARNVFERGEFNFEELFPVGVGVTTFESNTQYLLRFMIDCDVVGMNWIHLPASKYQFRYQNRVSNCQIEAWINYKDLISLPAEGQWSKMAPLRIMSFDIECAGRKGVFPDPSIDPVIQIASIVTQYGDSTPFVRNVFCVDTCSQIVGTQVYEFQNQAEMLSSWSKFVRDVDPDVLIGYNICNFDIPYLLDRAKSLRIHNFPLLGRIHNFFSVAKETTFSSKAYGTRESKTTSIPGRLQLDMLQVMQRDFKLRSYSLNAVCSQFLGEQKEDVHYSIITDLQNGTADSRRRLAIYCLKDAYLPQRLMDKLMCFVNYTEMARVTGVPFNFLLARGQQIKVISQLFRKALQHDLVVPNIRVNGTDEQYEGATVIEPIKGYYDTPIATLDFSSLYPSIMQAHNLCYTTLLDSNTAELLKLKQDVDYSVTPNGDYFVKPHVRKGLLPIILADLLNARKKAKADLKKETDPFKKAVLDGRQLALKVSANSVYGFTGATNGRLPCLAISSSVTSYGRQMIEKTKDVVEKRYRIENGYSHDAVVIYGDTDSVMVKFGVKTLPEAMKLGEEAANYVSDQFPNPIKLEFEKVYFPYLLISKKRYAGLFWTRTDTYDKMDSKGIETVRRDNCPLVSYVIDTALRKMLIDQDVEGAQLFTKKVISDLLQNKIDMSQLVITKALSKTDYAAKMAHVELAERMRKRDAGSAPAIGDRVAYVIIKGAQGDQFYMRSEDPIYVLENNIPIDAKYYLENQLSKPLLRIFEPILGEKASSLLHGDHTRTISMAAPSVGGIMKFAVKVETCLGCKAPIKKGKTALCENCLNRSAELYQRQVAQVNDLEVRFARLWTQCQRCQGSMHQDVICTSRDCPIFYMRIAEHKKLQQSVDLLKRFDEMSW
notes: DNA polymerase delta catalytic subunit Pol3, S. pombe; prey plasmid named pACT-Pol3 in the results and pGAD2F-Pol3 in the methods; also called Gal4-Pol3; pACT-Pol3; source: yeast two-hybrid fusion, in S. cerevisiae CTY10-5d
